US20080050776A1

Key:
Sortilin co-receptor = Sortilin co-receptor (UniProt O54861); assay: cell-based or functional assay
[1] = target: p75 neurotrophin receptor (p75NTR) (UniProt P07174); assay: cell-based or functional assay
UniProt P07174, sequence (P07174 30-425): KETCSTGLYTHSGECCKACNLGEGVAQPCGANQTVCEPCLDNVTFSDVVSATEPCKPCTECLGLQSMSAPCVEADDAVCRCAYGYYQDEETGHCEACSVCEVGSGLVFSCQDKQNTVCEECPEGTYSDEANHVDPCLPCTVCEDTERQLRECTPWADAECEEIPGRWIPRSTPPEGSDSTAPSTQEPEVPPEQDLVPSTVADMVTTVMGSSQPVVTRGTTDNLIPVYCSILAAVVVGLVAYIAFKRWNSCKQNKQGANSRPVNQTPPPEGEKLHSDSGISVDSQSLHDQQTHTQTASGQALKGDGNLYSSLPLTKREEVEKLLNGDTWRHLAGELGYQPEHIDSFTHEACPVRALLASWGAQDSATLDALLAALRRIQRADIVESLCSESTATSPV

UniProt O54861, sequence (O54861 74-825 limits assumed): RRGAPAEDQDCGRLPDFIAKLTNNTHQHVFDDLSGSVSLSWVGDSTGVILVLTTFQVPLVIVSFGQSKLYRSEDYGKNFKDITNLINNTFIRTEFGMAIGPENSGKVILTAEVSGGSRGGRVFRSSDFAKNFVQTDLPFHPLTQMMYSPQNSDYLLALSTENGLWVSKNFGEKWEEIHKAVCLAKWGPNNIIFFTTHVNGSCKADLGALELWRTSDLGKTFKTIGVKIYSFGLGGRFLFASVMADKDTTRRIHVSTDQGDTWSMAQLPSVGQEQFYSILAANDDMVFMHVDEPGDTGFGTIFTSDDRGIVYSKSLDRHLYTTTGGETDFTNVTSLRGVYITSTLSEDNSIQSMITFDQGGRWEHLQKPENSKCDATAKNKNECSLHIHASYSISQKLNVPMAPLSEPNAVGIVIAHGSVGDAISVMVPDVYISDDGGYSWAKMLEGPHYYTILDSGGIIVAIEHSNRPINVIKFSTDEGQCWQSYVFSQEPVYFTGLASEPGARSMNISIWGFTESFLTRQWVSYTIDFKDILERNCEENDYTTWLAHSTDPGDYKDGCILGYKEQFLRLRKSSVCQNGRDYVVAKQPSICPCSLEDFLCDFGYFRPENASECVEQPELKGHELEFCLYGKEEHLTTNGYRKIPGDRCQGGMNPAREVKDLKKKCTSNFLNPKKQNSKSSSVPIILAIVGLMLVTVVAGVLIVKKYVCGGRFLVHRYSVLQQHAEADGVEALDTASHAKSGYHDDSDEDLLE

## proNGF123 (mutated mouse proNGF with mutations at all three processing sites) (ligand)
Sortilin co-receptor
  cell death of PC-12 cells, trypan blue analysis 72 hours post treatment (2 nM): > 90%
[1]
  cell death of PC-12 cells, trypan blue analysis 72 hours post treatment (2 nM): > 90%
